Values belong to the molecule of their own block, whether it stands above or below them.
Tests used:
His-ZapA (E. coli) [1] = molecular target: His-ZapA (E. coli) (UniProt P0ADS2); assay: AUC
His-ZapA (E. coli) [2] = molecular target: His-ZapA (E. coli) (UniProt P0ADS2); assay: composition-gradient static light scattering
[3] = molecular target: Escherichia coli FtsZ (E. coli) (UniProt P0A9A6); assay: co-sedimentation
ZapA (Escherichia coli) = ZapA (Escherichia coli) (UniProt P0ADS2); conditions: cited from earlier work
[4] = molecular target: the molecule itself; assay: negative-stain electron microscopy

Molecule: ZapA (from UniProt P0ADS2)
Kd (ZapA (Escherichia coli)): 320 nM

B1: Escherichia coli FtsZ (natural protein)
chain: MFEPMELTNDAVIKVIGVGGGGGNAVEHMVRERIEGVEFFAVNTDAQALRKTAVGQTIQIGSGITKGLGAGANPEVGRNAADEDRDALRAALEGADMVFIAAGMGGGTGTGAAPVVAEVAKDLGILTVAVVTKPFNFEGKKRMAFAEQGITELSKHVDSLITIPNDKLLKVLGRGISLLDAFGAANDVLKGAVQGIAELITRPGLMNVDFADVRTVMSEMGYAMMGSGVASGEDRAEEAAEMAISSPLLEDIDLSGARGVLVNITAGFDLRLDEFETVGNTIRAFASDNATVVIGTSLDPDMNDELRVTVVATGIGMDKRPEITLVTNKQVQQPVMDRYQQHGMAPLTQEQKPVAKVVNDNAPQTAKEPDYLDIPAFLRKQAD
binding result [4]: binds

Continued, values first:

stoichiometry N (His-ZapA (E. coli) [1]): 4
stoichiometry N (His-ZapA (E. coli) [2]): 4
Molecule: His-ZapA (from UniProt P0ADS2 1-109) (natural protein)

stoichiometry N [3]: 1
Molecule: ZapA (His tag removed by enterokinase digestion of His-ZapA) (from UniProt P0ADS2 1-109) (natural protein)
